Data on 6 molecules can be found in US20210139548A1 (published 2021).

*1 amine or outer side, *2 acyl side, *3 side chain or, on linkers, in order; H or OH if unused. Side-chain parts run from the residue outwards. The star is where a group is joined. C18 diacid = O=C(O)CCCCCCCCCCCCCCCCC(=O)*; γGlu = O=C(O)[C@H](CCC(=O)[*:2])N[*:1]; Isovaleryl = CC(C)CC(=O)*; AEEA = NCCOCCOCC(=O)O

T1: human neuropeptide Y2 receptor (human, UniProt P49146 1-381)
T1 construct: whole, on cells; also called hNPY2 receptor; hNPY2-R
T1 sequence (looked up): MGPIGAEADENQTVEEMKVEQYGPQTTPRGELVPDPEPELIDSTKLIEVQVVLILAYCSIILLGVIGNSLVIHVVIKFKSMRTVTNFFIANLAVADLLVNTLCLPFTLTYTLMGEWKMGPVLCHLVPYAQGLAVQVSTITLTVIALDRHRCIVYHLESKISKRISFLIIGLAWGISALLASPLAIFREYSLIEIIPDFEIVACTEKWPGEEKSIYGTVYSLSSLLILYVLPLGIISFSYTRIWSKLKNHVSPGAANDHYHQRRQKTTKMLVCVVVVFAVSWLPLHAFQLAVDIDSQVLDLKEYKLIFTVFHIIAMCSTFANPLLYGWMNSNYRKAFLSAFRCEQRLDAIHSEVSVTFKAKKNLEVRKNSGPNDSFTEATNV

B1: Compound 153 (peptide)
peptide: Isovaleryl-APEK([AEEA-AEEA-γGlu-C18 diacid])VEEEASPEELQRYYVSLRHYYNWLTRQRY-NH2
SMILES: CC(C)CC(=O)N[C@@H](C)C(=O)N1CCC[C@H]1C(=O)N[C@@H](CCC(=O)O)C(=O)N[C@@H](CCCCNC(=O)COCCOCCNC(=O)COCCOCCNC(=O)CC[C@H](NC(=O)CCCCCCCCCCCCCCCCC(=O)O)C(=O)O)C(=O)N[C@H](C(=O)N[C@@H](CCC(=O)O)C(=O)N[C@@H](CCC(=O)O)C(=O)N[C@@H](CCC(=O)O)C(=O)N[C@@H](C)C(=O)N[C@@H](CO)C(=O)N1CCC[C@H]1C(=O)N[C@@H](CCC(=O)O)C(=O)N[C@@H](CCC(=O)O)C(=O)N[C@@H](CC(C)C)C(=O)N[C@@H](CCC(N)=O)C(=O)N[C@@H](CCCNC(=N)N)C(=O)N[C@@H](Cc1ccc(O)cc1)C(=O)N[C@@H](Cc1ccc(O)cc1)C(=O)N[C@H](C(=O)N[C@@H](CO)C(=O)N[C@@H](CC(C)C)C(=O)N[C@@H](CCCNC(=N)N)C(=O)N[C@@H](Cc1c[nH]cn1)C(=O)N[C@@H](Cc1ccc(O)cc1)C(=O)N[C@@H](Cc1ccc(O)cc1)C(=O)N[C@@H](CC(N)=O)C(=O)N[C@@H](Cc1c[nH]c2ccccc12)C(=O)N[C@@H](CC(C)C)C(=O)N[C@H](C(=O)N[C@@H](CCCNC(=N)N)C(=O)N[C@@H](CCC(N)=O)C(=O)N[C@@H](CCCNC(=N)N)C(=O)N[C@@H](Cc1ccc(O)cc1)C(N)=O)[C@@H](C)O)C(C)C)C(C)C
B2: Compound 160 (peptide)
peptide: Isovaleryl-APEK([AEEA-AEEA-γGlu-C18 diacid])PEADAEPEELQRYYTSLRHYYNWLTRQRY-NH2
SMILES: CC(C)CC(=O)N[C@@H](C)C(=O)N1CCC[C@H]1C(=O)N[C@@H](CCC(=O)O)C(=O)N[C@@H](CCCCNC(=O)COCCOCCNC(=O)COCCOCCNC(=O)CC[C@H](NC(=O)CCCCCCCCCCCCCCCCC(=O)O)C(=O)O)C(=O)N1CCC[C@H]1C(=O)N[C@@H](CCC(=O)O)C(=O)N[C@@H](C)C(=O)N[C@@H](CC(=O)O)C(=O)N[C@@H](C)C(=O)N[C@@H](CCC(=O)O)C(=O)N1CCC[C@H]1C(=O)N[C@@H](CCC(=O)O)C(=O)N[C@@H](CCC(=O)O)C(=O)N[C@@H](CC(C)C)C(=O)N[C@@H](CCC(N)=O)C(=O)N[C@@H](CCCNC(=N)N)C(=O)N[C@@H](Cc1ccc(O)cc1)C(=O)N[C@@H](Cc1ccc(O)cc1)C(=O)N[C@H](C(=O)N[C@@H](CO)C(=O)N[C@@H](CC(C)C)C(=O)N[C@@H](CCCNC(=N)N)C(=O)N[C@@H](Cc1c[nH]cn1)C(=O)N[C@@H](Cc1ccc(O)cc1)C(=O)N[C@@H](Cc1ccc(O)cc1)C(=O)N[C@@H](CC(N)=O)C(=O)N[C@@H](Cc1c[nH]c2ccccc12)C(=O)N[C@@H](CC(C)C)C(=O)N[C@H](C(=O)N[C@@H](CCCNC(=N)N)C(=O)N[C@@H](CCC(N)=O)C(=O)N[C@@H](CCCNC(=N)N)C(=O)N[C@@H](Cc1ccc(O)cc1)C(N)=O)[C@@H](C)O)[C@@H](C)O
B3: Compound 155 (peptide)
peptide: Isovaleryl-APEK([AEEA-AEEA-γGlu-C18 diacid])PEEDASPEETQRYYVSLRHYYNWLTRQRY-NH2
SMILES: CC(C)CC(=O)N[C@@H](C)C(=O)N1CCC[C@H]1C(=O)N[C@@H](CCC(=O)O)C(=O)N[C@@H](CCCCNC(=O)COCCOCCNC(=O)COCCOCCNC(=O)CC[C@H](NC(=O)CCCCCCCCCCCCCCCCC(=O)O)C(=O)O)C(=O)N1CCC[C@H]1C(=O)N[C@@H](CCC(=O)O)C(=O)N[C@@H](CCC(=O)O)C(=O)N[C@@H](CC(=O)O)C(=O)N[C@@H](C)C(=O)N[C@@H](CO)C(=O)N1CCC[C@H]1C(=O)N[C@@H](CCC(=O)O)C(=O)N[C@@H](CCC(=O)O)C(=O)N[C@H](C(=O)N[C@@H](CCC(N)=O)C(=O)N[C@@H](CCCNC(=N)N)C(=O)N[C@@H](Cc1ccc(O)cc1)C(=O)N[C@@H](Cc1ccc(O)cc1)C(=O)N[C@H](C(=O)N[C@@H](CO)C(=O)N[C@@H](CC(C)C)C(=O)N[C@@H](CCCNC(=N)N)C(=O)N[C@@H](Cc1c[nH]cn1)C(=O)N[C@@H](Cc1ccc(O)cc1)C(=O)N[C@@H](Cc1ccc(O)cc1)C(=O)N[C@@H](CC(N)=O)C(=O)N[C@@H](Cc1c[nH]c2ccccc12)C(=O)N[C@@H](CC(C)C)C(=O)N[C@H](C(=O)N[C@@H](CCCNC(=N)N)C(=O)N[C@@H](CCC(N)=O)C(=O)N[C@@H](CCCNC(=N)N)C(=O)N[C@@H](Cc1ccc(O)cc1)C(N)=O)[C@@H](C)O)C(C)C)[C@@H](C)O
B4: Compound 163 (peptide)
peptide: Isovaleryl-APEK([AEEA-AEEA-γGlu-C18 diacid])PEEAASPEELQRYYVALRHYYNWLTRQRY-NH2
SMILES: CC(C)CC(=O)N[C@@H](C)C(=O)N1CCC[C@H]1C(=O)N[C@@H](CCC(=O)O)C(=O)N[C@@H](CCCCNC(=O)COCCOCCNC(=O)COCCOCCNC(=O)CC[C@H](NC(=O)CCCCCCCCCCCCCCCCC(=O)O)C(=O)O)C(=O)N1CCC[C@H]1C(=O)N[C@@H](CCC(=O)O)C(=O)N[C@@H](CCC(=O)O)C(=O)N[C@@H](C)C(=O)N[C@@H](C)C(=O)N[C@@H](CO)C(=O)N1CCC[C@H]1C(=O)N[C@@H](CCC(=O)O)C(=O)N[C@@H](CCC(=O)O)C(=O)N[C@@H](CC(C)C)C(=O)N[C@@H](CCC(N)=O)C(=O)N[C@@H](CCCNC(=N)N)C(=O)N[C@@H](Cc1ccc(O)cc1)C(=O)N[C@@H](Cc1ccc(O)cc1)C(=O)N[C@H](C(=O)N[C@@H](C)C(=O)N[C@@H](CC(C)C)C(=O)N[C@@H](CCCNC(=N)N)C(=O)N[C@@H](Cc1c[nH]cn1)C(=O)N[C@@H](Cc1ccc(O)cc1)C(=O)N[C@@H](Cc1ccc(O)cc1)C(=O)N[C@@H](CC(N)=O)C(=O)N[C@@H](Cc1c[nH]c2ccccc12)C(=O)N[C@@H](CC(C)C)C(=O)N[C@H](C(=O)N[C@@H](CCCNC(=N)N)C(=O)N[C@@H](CCC(N)=O)C(=O)N[C@@H](CCCNC(=N)N)C(=O)N[C@@H](Cc1ccc(O)cc1)C(N)=O)[C@@H](C)O)C(C)C
B5: Compound 165 (peptide)
peptide: Isovaleryl-APEK([AEEA-AEEA-γGlu-C18 diacid])PEEDASPEELQRYQVSLRHYYNWLTRQRY-NH2
SMILES: CC(C)CC(=O)N[C@@H](C)C(=O)N1CCC[C@H]1C(=O)N[C@@H](CCC(=O)O)C(=O)N[C@@H](CCCCNC(=O)COCCOCCNC(=O)COCCOCCNC(=O)CC[C@H](NC(=O)CCCCCCCCCCCCCCCCC(=O)O)C(=O)O)C(=O)N1CCC[C@H]1C(=O)N[C@@H](CCC(=O)O)C(=O)N[C@@H](CCC(=O)O)C(=O)N[C@@H](CC(=O)O)C(=O)N[C@@H](C)C(=O)N[C@@H](CO)C(=O)N1CCC[C@H]1C(=O)N[C@@H](CCC(=O)O)C(=O)N[C@@H](CCC(=O)O)C(=O)N[C@@H](CC(C)C)C(=O)N[C@@H](CCC(N)=O)C(=O)N[C@@H](CCCNC(=N)N)C(=O)N[C@@H](Cc1ccc(O)cc1)C(=O)N[C@@H](CCC(N)=O)C(=O)N[C@H](C(=O)N[C@@H](CO)C(=O)N[C@@H](CC(C)C)C(=O)N[C@@H](CCCNC(=N)N)C(=O)N[C@@H](Cc1c[nH]cn1)C(=O)N[C@@H](Cc1ccc(O)cc1)C(=O)N[C@@H](Cc1ccc(O)cc1)C(=O)N[C@@H](CC(N)=O)C(=O)N[C@@H](Cc1c[nH]c2ccccc12)C(=O)N[C@@H](CC(C)C)C(=O)N[C@H](C(=O)N[C@@H](CCCNC(=N)N)C(=O)N[C@@H](CCC(N)=O)C(=O)N[C@@H](CCCNC(=N)N)C(=O)N[C@@H](Cc1ccc(O)cc1)C(N)=O)[C@@H](C)O)C(C)C
B6: Compound 158 (peptide)
peptide: Isovaleryl-APEK([AEEA-AEEA-γGlu-C18 diacid])PEEDASPEELQRYYVSLRHYWNYLTRQRY-NH2
SMILES: CC(C)CC(=O)N[C@@H](C)C(=O)N1CCC[C@H]1C(=O)N[C@@H](CCC(=O)O)C(=O)N[C@@H](CCCCNC(=O)COCCOCCNC(=O)COCCOCCNC(=O)CC[C@H](NC(=O)CCCCCCCCCCCCCCCCC(=O)O)C(=O)O)C(=O)N1CCC[C@H]1C(=O)N[C@@H](CCC(=O)O)C(=O)N[C@@H](CCC(=O)O)C(=O)N[C@@H](CC(=O)O)C(=O)N[C@@H](C)C(=O)N[C@@H](CO)C(=O)N1CCC[C@H]1C(=O)N[C@@H](CCC(=O)O)C(=O)N[C@@H](CCC(=O)O)C(=O)N[C@@H](CC(C)C)C(=O)N[C@@H](CCC(N)=O)C(=O)N[C@@H](CCCNC(=N)N)C(=O)N[C@@H](Cc1ccc(O)cc1)C(=O)N[C@@H](Cc1ccc(O)cc1)C(=O)N[C@H](C(=O)N[C@@H](CO)C(=O)N[C@@H](CC(C)C)C(=O)N[C@@H](CCCNC(=N)N)C(=O)N[C@@H](Cc1c[nH]cn1)C(=O)N[C@@H](Cc1ccc(O)cc1)C(=O)N[C@@H](Cc1c[nH]c2ccccc12)C(=O)N[C@@H](CC(N)=O)C(=O)N[C@@H](Cc1ccc(O)cc1)C(=O)N[C@@H](CC(C)C)C(=O)N[C@H](C(=O)N[C@@H](CCCNC(=N)N)C(=O)N[C@@H](CCC(N)=O)C(=O)N[C@@H](CCCNC(=N)N)C(=O)N[C@@H](Cc1ccc(O)cc1)C(N)=O)[C@@H](C)O)C(C)C

In this experiment the target is T1, human neuropeptide Y2 receptor. Kind of experiment: radioligand competition (125I-PYY(1-36)), hNPY2R membranes. The procedure, abridged: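 Commercial human Y2 receptor membranes (0.5 μg protein/well) were incubated with peptide for 2 h at room temperature in 50 mM HEPES, 5 mM MgCl₂, 1 mM CaCl₂, pH 7.4, with 0.2% ovalbumin. Bound radioligand was separated on PEI-soaked GF/C filters and counted by scintillation, and IC₅₀ came from nonlinear sigmoidal regression.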
For B1, the affinity, expressed as Ki, was 14.4 nM.

For B2, affinity was put at a Ki of 2 nM.

Regarding B3, affinity was put at a Ki of 2.05 nM.

Turning to B4, the Ki – broadly, the dissociation constant of the complex between target and ligand, obtained from inhibition or displacement – was 0.96 nM.

In turn, B5 registered a Ki of 2.49 nM.

B6: the Ki came out at 4.43 nM.
